Reference: patent US20170204182A1 (published 2017)

Molecular target: T1, phosphorylated human tau protein (human, UniProt P10636-8 1-441, limits assumed, S422 phosphorylation)
T1 construct: also called pTau
Experiment: SPR (BIAcore); value set to 0 where kd not determinable

T1 sequence (P10636 other isoform, or with tags, fused parts or gaps limits assumed): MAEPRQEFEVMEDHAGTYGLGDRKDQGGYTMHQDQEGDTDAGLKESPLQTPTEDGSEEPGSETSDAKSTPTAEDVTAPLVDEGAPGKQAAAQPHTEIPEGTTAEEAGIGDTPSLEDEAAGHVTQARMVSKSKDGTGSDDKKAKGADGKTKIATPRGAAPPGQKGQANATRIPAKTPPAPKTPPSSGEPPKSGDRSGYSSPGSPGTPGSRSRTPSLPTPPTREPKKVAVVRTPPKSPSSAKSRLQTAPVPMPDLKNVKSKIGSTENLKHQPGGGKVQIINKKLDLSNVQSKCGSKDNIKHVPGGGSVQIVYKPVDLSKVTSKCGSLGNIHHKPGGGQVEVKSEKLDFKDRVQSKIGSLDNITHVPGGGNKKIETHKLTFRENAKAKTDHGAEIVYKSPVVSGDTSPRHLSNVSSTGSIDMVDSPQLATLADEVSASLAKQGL

B1: Rb86 variant: HC 001_IGHV3_23_04 / LC 010--IMGT_hVK_1_17 (antibody, V domains shown)
VH: QQLVESGGGLVQPGGSLRLSCAASGFSLSSNAINWVRQAPGKGLEWVGYIAVSGNTYYASWAKGRFTISRDNSKNTLYLQMNSLRAEDTAVYYCGKSNIWGQGTLVTVSS
VL: DIQMTQSPSSLSASVGDRVTITCRASQGVRTNKLGWYQQKPGKAPKRLIYSASTLQSGVPSRFSGSGSGTEFTLTISSLQPEDFATYYCLGYFDCSIADCVAFGGGTKVEIK
- half-life (t1/2): 0 h
